Fold more plasminogen complexed with PAI-1 (rPAI-123-treated against saline-treated mice) and plasmin activity (chromozym assay); 50 nM PAI-1 pre-bound to plasminogen 1 h data for 2 substances are collected here from patent publication US20130310305A1.

Test [1] concerns the target mouse plasminogen (endogenous, in descending aorta protein of LDLR-/- ApoB48-deficient mice) (mouse) (UniProt P20918). In words: co-immunoprecipitation from pooled mouse descending aorta protein, densitometry of the western blot.
Test [2] addresses plasminogen (purified; Molecular Innovations in the plasmin activity reactions). The experiment in a line: cell-based or functional assay.

Sequence of UniProt P20918 (P20918 20-812 limits assumed): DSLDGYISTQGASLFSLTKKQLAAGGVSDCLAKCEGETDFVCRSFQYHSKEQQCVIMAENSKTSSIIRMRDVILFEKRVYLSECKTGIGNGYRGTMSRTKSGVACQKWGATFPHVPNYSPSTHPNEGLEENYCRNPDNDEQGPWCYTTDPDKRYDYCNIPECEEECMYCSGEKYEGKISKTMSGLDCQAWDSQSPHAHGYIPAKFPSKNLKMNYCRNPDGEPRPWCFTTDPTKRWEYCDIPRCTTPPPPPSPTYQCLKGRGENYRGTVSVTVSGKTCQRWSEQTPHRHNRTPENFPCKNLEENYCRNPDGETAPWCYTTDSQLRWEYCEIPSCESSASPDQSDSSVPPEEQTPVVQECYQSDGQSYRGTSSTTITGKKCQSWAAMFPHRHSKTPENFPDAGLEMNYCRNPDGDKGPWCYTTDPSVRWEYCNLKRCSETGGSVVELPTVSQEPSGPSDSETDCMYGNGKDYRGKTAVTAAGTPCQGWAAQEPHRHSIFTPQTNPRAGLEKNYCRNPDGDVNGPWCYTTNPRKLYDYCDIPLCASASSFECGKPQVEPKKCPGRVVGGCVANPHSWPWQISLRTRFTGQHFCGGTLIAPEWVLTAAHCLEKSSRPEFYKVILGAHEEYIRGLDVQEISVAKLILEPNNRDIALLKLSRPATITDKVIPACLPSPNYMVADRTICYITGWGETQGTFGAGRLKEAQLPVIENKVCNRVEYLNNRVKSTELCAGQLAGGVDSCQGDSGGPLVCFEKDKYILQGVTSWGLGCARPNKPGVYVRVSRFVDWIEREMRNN

Consider “mouse PAI-1 (endogenous, in descending aorta protein of LDLR-/- ApoB48-deficient mice) (from UniProt P22777 23-402)”, for which, in test [1], the fold more plasminogen complexed with PAI-1 (rPAI-123-treated against saline-treated mice) was found to be 1.6 fold.

Regarding “glycosylated human PAI-1 (Molecular Innovations) (from UniProt P05121 24-402)”, the plasmin activity (chromozym assay); 50 nM PAI-1 pre-bound to plasminogen 1 h at 37 C before tPA was added (late) in test [2] came out at 0.00138 U/ml.
